Data set [1] deals with the molecule itself. The data set is described as follows: SDS-PAGE under reducing and non-reducing conditions, Coomassie Blue staining and Western blot (self-association into the heptamer). The text has this:
(§1) For Western blot analysis, PRP-based proteins were resolved on 4-12% gradient SDS-PAGE (NuPAGE Bis-Tris 4-12% Mini Gels, Invitrogen) under reducing and non-reducing conditions and transferred to PVDF membrane. After blocking, the membrane was probed with primary antibodies: 1:2000 dil. polyclonal PK9008 rabbit anti-C4BP (a gift from Anna Blom), and 1:4000 dil. 6×His Monoclonal Antibody (Clontech, Mountain View, CA, USA), followed by the addition of 1:2000 dil. polyclonal Goat Anti-Rabbit IgG HRP (P0448, Dako, Agilent, Santa Clara. CA, USA), and 1:2000 dil. polyclonal Goat Anti-Mouse IgG HRP (P0447, Dako, Agilent, Santa Clara, CA, USA), respectively. Detection was performed with enhanced chemiluminescence (ECL) (Pierce, ThermoFischer, Carlsbad, CA, USA) using ChemiDoc Imager (Bio-Rad, Hercules, CA, USA).
(§2) In this regard, and to assess whether the C4BP CCP6 domain alone as a monomer or, conversely, in an heptavalent oligomerized form analogous to its physiological origin, would preserve the anti-inflammatory and immunomodulatory activities ascribed to PRP-HO7 (Olivar et al. (2013) J. Immunol. 190: 2857-2872). PRP6-HO7 and PRP6-NO were produced in HEK293 cells and were purified from its supernatants (FIG. 3). […]

Data set [2] deals with the molecule itself. Kind of data set: SDS-PAGE under non-reducing conditions, Coomassie Blue staining and Western blot (self-association).
From the text: as §1, §2
(Immunoblotting shows a protein as a band on a membrane.)

B1: mature recombinant polypeptide forming PRP6-HO7 (single monomer chain, 14.3 kDa) (other)
chain: HHHHHHLCCPEPKLNNGEITQHRKSRPANHCVYFYGDEISFSCHETSRFSAICQGDGTWSPRTPSCGDETPEGCEQVLTGKRLMQCLPNPEDVKMALEVYKLSLEIEQLELQRDSARQSTLDKEL
notes: Same chain as in m1; also called PRP6-HO7 monomer chain
In the case of B1, the binding result in data set [1] is recorded as “binds”.

B2: PRP6-NO, recombinant polypeptide formed by the CCP6 domain of C4BP(β-) fused at its C-terminus to a mutated C4BP(β-) oligomerization domain unable to … (other)
chain: HHHHHHLCCPEPKLNNGEITQHRKSRPANHCVYFYGDEISFSCHETSRFSAICQGDGTWSPRTPSCGDETPEGAEQVLTGKRLMQALPNPEDVKMALEVYKLSLEIEQLELQ
notes: Produced in Expi293 cells; Monomer of 12.7 kDa
For B2, the binding result in data set [2] is “no binding”.

The record behind these values is patent publication US20240131059A1 (FUNDACI INSTITUT D INVESTIGACI BIOM DICA DE BELLVITGE …, published 2024).
